Results on 30 sequences are retold here after the nanobody polyreactivity screen of Harvey et al. (2022).

This data set can be described thus: yeast display, Sf9 membrane polyspecificity reagent, FACS + sequencing; frameworks hold sequencing errors. The essentials:
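Galactose induction of a Saccharomyces cerevisiae BJ5465 synthetic nanobody display library ran 36–48 hours. The cells were then stained for 1 hour at 4 °C with 10% biotinylated, detergent-solubilized Sf9 membrane reagent, pulled down on streptavidin microbeads and FACS-sorted into low and high (top ~1%) gates on expression and reagent-binding fluorescence. Labels for polyreactivity follow the gate of origin.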
Consider “QVQLVESGGGLVQAGGSLRLSCAASGITFYRYAMGWYRQAPGKERELVAAINSSGGNTYYADSVKGRFTISRDNAKNTVYLQMNSLKPEDTAVYYCAADRVSWVKHYYWGQGTQVTVSS”, for which the “polyreactivity (PSR sort gate)” value is “high polyreactivity”.

With “QVQLVESGGGLVQAAGSLRLSCAASGRTFYDNAMGWYRQAPGKERELVAAITKSGGRTYYVDSVKGRFTISRDNAKNTVYLQMNSLKPEDTAVYYCAASWPNYLYEYWGQGTQVTVSS”, the “polyreactivity (PSR sort gate)” value is “high polyreactivity”.

On to “QVQLVESGGGLVQAGGSLRLSCAASGSTFHSNAMGWYRQAPGKEREVVATISFGGGSKYYADSVKGRFTISRDNAKNTVYLQMNSLKPEDTAVYYCARDQTFGPCPYVWYYYPGYDYWGQGTQVTVSS”, for which the “polyreactivity (PSR sort gate)” value is listed as “low polyreactivity”.

Regarding “QVQLVESGGGLVQAGGSLRLSCAASGSIFYPYAMGWYRQAPGKERELVATINEDGGSTYYADSVKGRFTISRDNAKNTVYLQMNSLKPEDTAVYYCNTDHFEDYHTDFWSDYEYWGQGTQVTVSS”, the “polyreactivity (PSR sort gate)” value is on record as “low polyreactivity”.

For the sequence “QVQLEESGGGLVQAAGRLRVSCAASGYIYGYAMGWYKQAPAKEMELVAAITRGGGRTYYADSVKGRFTISRDNAKNTVYFQMHSLKPVDTAVYYCAVAANRGKGFYEYYHWGQGTQVTVSS”, the “polyreactivity (PSR sort gate)” value is on record as “high polyreactivity”.

On to “QVQLVESGGGLVQAGGSLRLSCAASGRIFYWYVMGWYRQAPGKERELVATIRYSGGNTYYADSVKGRFTISRDNAKNTVYLQMNSLKPEETEVYYCAAGSLYWGRSPTRGGQGGYWGQGTQVTVSS”, for which the “polyreactivity (PSR sort gate)” value is recorded as “high polyreactivity”.

For the sequence “QVQLVESGGGVVQAGGSLRLSCAASGRIFARYTMGWYRQAPGKEREFVAGIRSSGGRTYYADSVKGRFTISRDTAKNTVYLQMNSLKPEDSAVYYCNAGGSWYFARYDYWGEGTQVTVSS”, the “polyreactivity (PSR sort gate)” value is reported as “low polyreactivity”.

Consider “QVQLVESGVGLVQAGGSLRLSCAASGITFTSYAMGWYRQAPVKERELVAAISSSGVRTYYADSVKGRFTISRDNSKNTVYLQMNSLKPEDTAVYYCATRRRVLYGYDYWGQGTQVTVSS”, for which the “polyreactivity (PSR sort gate)” value is listed as “high polyreactivity”.

Turning to “QVQLVESGGGLVQAGGSLRLSCAASGSIFTRNAMGWYITAPGKEREFVAAISSSGVSTYYADSVKGRLTISRDNAKNTVYLQMNSLKPEDTAVYYCAARWGTKSGRYDYWGQGTQVTVSS”, the “polyreactivity (PSR sort gate)” value is reported as “high polyreactivity”.

As to “QVQLVESGGGLVQAGGSLRLSCAASGFIFVLNVMGWYRQAPGKERELVAAITWRGTSTYYADSVKGRFTISRDNAKNTVYLQMNSLKPEDTAVYYCAVKGFSTRSYREFDYWGQGTQVTVSS”, the “polyreactivity (PSR sort gate)” value is listed as “low polyreactivity”.

Take “QVQLVESGGGLVQAGGSLRLSCAASGSTFNPYAMGWYRQAPGKERELVAAINSRGGSTYYADSVKGRFTISRDNAKNTVYLQMNSLKPEDSAVYYCAARTRRRTSAYEYWGQGTQVTVSS”: the “polyreactivity (PSR sort gate)” value is recorded as “high polyreactivity”.

Consider “QVQLVESGGGLVQAGGSLRLTCAASGSIFRDNVMGWSRQAPGKERELVAAISKRGGSTYYADSVKGRFTISRDNAKNTVYLQMNSLKPEDTAVYYCAAPQGRSHYYRYDYWGQGTQVTVSS”, for which the “polyreactivity (PSR sort gate)” value is listed as “high polyreactivity”.

As to “QVQLVDSGGGLVQAGGSLRLSCAASGRLFDRNAMGWYRQGPGKERELVARIDPGDDTNYSYSVTGRFTISRDNAKNTVYLQMNSLKPEDTAVYYCATDPDYVLYRTAYYEYDYWGKGTQVTVSS”, the “polyreactivity (PSR sort gate)” value is recorded as “low polyreactivity”.

Consider “QVQRVESWGGLVQAGCRLRLSCAASGIFRRYAMGWYRQAPGKERELVAAISSSGGSTDYADSVKGRFTISRDNAKNTVYLLMNSLKPEDTAVYYCNAYDLHGWWSYAYDYWGQGTQVTVSS”, for which the “polyreactivity (PSR sort gate)” value is recorded as “high polyreactivity”.

For the sequence “QVQLVESGGGLVQAGGSLRLSCAASGRIFYSYAMGWYRQAPGKERELVAAISFSVGSTYYADSVKGRFTISRDNAKNTVYLQMNSLKPEDTAVYYCATGWYYTSTTYRSSDFDYWGQGTQVTVSS”, the “polyreactivity (PSR sort gate)” value is on record as “low polyreactivity”.

Regarding “QVQLVESGGGLVQAGGSLRLSCAASGRIFAYYAMGWYRQAPGKERELVAAITSRGGRTYYADSVKGRFTISRDNAKNTVYLQMNSLKPEDTAVYYCAAKGRPDGKYDYWGQGTQVTVSS”, the “polyreactivity (PSR sort gate)” value is “high polyreactivity”.

Consider “QVQLVESGGGLVQAGGSLRLSCAASGSIFMRYSMGWYRQAPGKDRELVAAITRSGGSTYYADSVKGRFTISRDNAKNTVYLQMNSLKPEDTAVYFCAAYTFVTVGYDYWGQGTQVTVSS”, for which the “polyreactivity (PSR sort gate)” value is “high polyreactivity”.

Take “KVQLVESGGGLVQAGGSLRLSCAASGSIFWDNVMGWYRQAPGNERELVADIDSWDGGSTYYADSVKGRFTISRDNAKNTVYLQMNSLKPEDTAVYYCNSDVLWWRGGDDFWGKGTQVTVSS”: the “polyreactivity (PSR sort gate)” value is reported as “low polyreactivity”.

For the sequence “QVQLVESVGGLVQAGGSLRLSCAASGRTFWYYSMGWDREAPGKERELVAAITSGGSTNYADSVKGRFTISRDNAKNTVYLQIYSLKPEDTAVYYCDTDNPVFEYYYWGQGTQVTVSS”, the “polyreactivity (PSR sort gate)” value was “low polyreactivity”.

“HEQQQDSGAGLVQAGGSLRLSCAASGNIFDSPRMGWYRQATGKEREFVATIGSGTITNYADSVKGRFTISRDNAKNTVYLQMNSLKPEDTAVYYCAAEFYLRRFKVTKRYWFDYWGQGTQVTVSS”: the “polyreactivity (PSR sort gate)” value is given as “low polyreactivity”.

For “QVQLVESGGGLVQAGGSLRLSCAASGLIFRPYTMGWYRQAPGKERELVAAINFSGGNTYYADSVKGRFTISRDNAKNTVYLQMNSLKPEDTAVYYCATKSFYGYYYWPYGYWGQGTQVTVSS”, the “polyreactivity (PSR sort gate)” value is listed as “low polyreactivity”.

As for “QVQHVESGGALVQAGGSLRLSCAASGITFDYYVMGWYRTAPGKERELVAGISSGGSTYYADSVKGRFTISRDNAKNTVYLQMNSLKPEDTAVYYCNARRRRLVSVGYYYNYDYWGQGTQVTVSS”, the “polyreactivity (PSR sort gate)” value is listed as “high polyreactivity”.

As to “QVQLVESGGGLVQAGGSLRLSCAASGSIFGYYAMGWYRQAPGKEREFVAAISVSGSRTYYADSVKGRFTISRDNAKNTVYLQMNSLKPEYTAVYYCAARVDYRHRYYYWGQGTLVTVSS”, the “polyreactivity (PSR sort gate)” value was “high polyreactivity”.

In the case of “QVQLVESGGGLVQAGGSLRLSCAASGSTFAGYTLGWYRQAPGKERELVAAITSRGGRTYYADSVKGRFTISRDHAKNTVYLQMNSLKPEDTAVYYCAAVSRYYAALMYYWGQGTQVTVSS”, the “polyreactivity (PSR sort gate)” value is listed as “high polyreactivity”.

In the case of “QVQLVESGGGLFQAGGSLRLSCAASGFTCSGYAMGWYRPAPGKERELVAGISASAGSTYADSVKGRFTISRDNAKNTVYLQMNSLKPEDTAVYYCAADLSFKAAIWFNEYGYWGQGTQVTVSS”, the “polyreactivity (PSR sort gate)” value is “low polyreactivity”.

Consider “QVQLVESGGGLVQAGGSLRLSCAASGRILGRNAMGWYRQAPGKERELVATITSRGGSTYYADSVKGRFTISRDNAKNTVYLQMNSLKPEDTAVYYCAAPRYYYYSYDYWGQGTQVTVSS”, for which the “polyreactivity (PSR sort gate)” value is on record as “high polyreactivity”.

Consider “QVQLVESGGGLVQAGGSLRLSCAASGRTFVPYAMGWYRQAPGKEREFVAAISSRVGSTYYADSVKGRFTISRDNAKNTVYLQMNSLKQEDTAVYYCNAPFKPAGFYSAWKYDYWGQGTQVTVSS”, for which the “polyreactivity (PSR sort gate)” value was “low polyreactivity”.

“QVQLVESGGGLVQAGGSLRLSCAASGRIFYGNAMGWYRQSPGKERELVASITSSGSTKYADSVKGRFTISRDNAKNTVYLQMNSLKPEDTAVYYCAASSTKRYDTYAGYDYWGQGTQVTVSS”: the “polyreactivity (PSR sort gate)” value was “low polyreactivity”.

For the sequence “QVQLVESGGGLVQAGGSLRLSCAASGSIFQYNAMGWYRQAPGKEREFVAAISSRGGITYYADSVKGRFTISRDNAKNTVYLQMNSLKPEDTAVYYCAAEAYYSEVRWYEYWGQGTQVTVSS”, the “polyreactivity (PSR sort gate)” value is given as “high polyreactivity”.

For “QVQLVESGGGLVQAGGSLRLSCAASGSTFLRNAMGWYRQAPGKEWELVATISTGSGRTYYADSVKGRFTISRDNAKNTVYLQMHSLKPEDTAVYYCAASRTLRKHRYEYWGQGTQVTVSS”, the “polyreactivity (PSR sort gate)” value is “high polyreactivity”.
